One assay concerns RD29B-LUC expression. Put plainly: ABA-independent induction of RD29B-LUC in triple mutant protoplasts. Particulars: abi1/hab1/abi2 protoplasts. The class given is cell-based, Arabidopsis. An excerpt:
The basal RD29B-LUC expression level was elevated in protoplasts co-transfected with PP2CA-PYL13, HAI2-PYL13, or HAI3-PYL13, which is consistent with PYL13 inhibition of these PP2Cs in an ABA-independent manner in vivo (FIG. 4A). To exclude interference by endogenous PP2Cs in wild type protoplasts and to assess the ABA-independent selective inhibition of PP2Cs by PYL13, PYL13 was co-expressed with PP2CA, HAI1, HAI2, and HAI3 in abi1/hab1/abi2 triple mutant protoplasts, as shown in FIG. 4C. After transfection, protoplasts were incubated for 4.5 h under light in the absence of ABA. Error bars indicate s.e.m. (n=3).
Expression of RD29B-LUC in the absence of ABA was increased in the transfections of PYL9-K63Q/L89F or PYL11-K39Q/L66F together with SnRK2.6 and ABF2 to a considerable level. The ABA-independent RD29B-LUC expression is about 70% of that in the presence of 5 μM ABA in the transfection of PYL11-K39Q/L66F, while about 30˜60% in the transfection of PYL9-K63Q/L89F (FIG. 4). […] RD29B-LUC was used as the ABA-responsive reporter. ZmUBQ-GUS was used as the internal control. After transfection, protoplasts were incubated for 4.5 h under light in the absence of ABA (open bars) or in the presence of 5 μM ABA (closed bars). Error bars indicate s.e.m. (n=4).
Assays for transient expression in protoplasts were performed as described (Fujii et al., 2009). Leaf strips (0.5 mm) were cut from the middle part of second leaves using a razor blade (VWR SCIENTIFIC) and submerged in 15 mL of enzyme solution containing 20 mM MES, pH 5.7, 1.5% (w/v) cellulase R10 (YAKULT PHARMACEUTICAL INDUSTRY), 0.4% (w/v) macerozyme R10 (YAKULT PHARMACEUTICAL INDUSTRY), 0.4 M mannitol, 20 mM KCl, 10 mM CaCl2, 1 mM 2-mercaptoethanol, and 0.1% BSA. The leaves were vacuum infiltrated for 30 min and then incubated without shaking for 3 h in the dark at room temperature. The enzyme/protoplast solution was diluted with 15 mL of W5 solution (2 mM MES, pH 5.7, 154 mM NaCl, 125 mM CaCl2, and 5 mM KCl) and filtered with a 75-μm nylon mesh. Protoplasts were centrifuged at 100 g for 2 min in a 30-mL round-bottomed tube (SARSTEDT), resuspended in W5 solution, and rested for 30 min at room temperature.
Before transfection, protoplasts were changed into MMg solution (4 mM MES, pH 5.7, 0.4 M mannitol, and 15 mM MgCl2) to a final concentration of 2×10^5 cells per microliter. Protoplasts (100 μl) were gently and thoroughly mixed with the plasmid DNA mixture (less than 10 μl) and 110 μl of PEG solution (40% w/v PEG-4000, 0.2 M mannitol, and 100 mM CaCl2), incubated for 5 min, washed with 440 μl of W5 solution, and resuspended in 50 μl of WI solution (4 mM MES, pH 5.7, 0.5 M mannitol, and 20 mM KCl). After transfection, protoplasts were incubated in WI solution without ABA or with 5 μM ABA under light. The protoplasts were harvested after 4.5 h, frozen in liquid N2, and stored at −80° C.
The frozen protoplasts were resuspended in 50 μl of protoplast lysis buffer containing 2.5 mM Tris-phosphate, pH 7.8, 1 mM DTT, 2 mM DACTAA, 10% (v/v) glycerol, and 1% (v/v) Triton X-100. Protoplast lysates (20 μl) were mixed with 100 μl of LUC mix (PROMEGA), and LUC luminescence was measured with a plate reader (Wallac VICTOR2 plate reader).
Protoplast lysates (2 μl) were mixed with 10 μl of 4-methylumbelliferyl β-D-glucuronide (MUG) substrate mix (10 mM Tris-HCl, pH 8, 1 mM MUG [GOLD BIOTECHNOLOGY], and 2 mM MgCl2). After the mixture was kept for 30 min at 37° C., 100 μl of 0.2 M Na2CO3 was added, and GUS activity was measured using the plate reader with the excitation filter at 355 nm and the emission filter at 460 nm.
All the plasmids used in this assay were purified with the QIAGEN Plasmid Maxi Kit or the QIAGEN Plasmid Midi Kit. The quality of plasmid DNA is important for high transfection efficiency. RD29B::LUC (7 μg of plasmid per transfection) was used as the ABA-responsive reporter. ZmUBQ::GUS (2 μg of plasmid per transfection) was used as the internal control. […]

The subject of another assay is clade A PP2Cs. Nature of the assay: Yeast two-hybrid assay of PYL13 with clade A PP2Cs. Particulars: ABA-independent. The class given is binding, Arabidopsis. As for the experimental part:
To investigate how PYL13 may function in plants, the interaction between PYL13 and clade A PP2Cs in yeast two-hybrid assays was examined, as shown in FIG. 3. […] PYL13 binds strongly with ABI1, ABI2, PP2CA, and HAI2 but weakly with HAB1 and HAI1 (FIG. 3A). […] PYL13 fused to the GAL4-DNA-binding domain (BD) was used as […], and PP2Cs fused to the GAL4-activating domain (AD) were used as baits. Interaction was determined by growth assay on media lacking His and His/Ade in the presence and absence of ABA. Dilutions (10^−1, 10^−2, and 10^−3) of saturated cultures were spotted onto the plates, which were photographed after 5 days.

Turning to “PYL2: Arabidopsis thaliana PYL family ABA receptor protein PYL2, AT2G26040”, in the assay with RD29B-LUC expression (with PP2CA only, SnRK2.6 and ABF2 (control transfection)), the “expression of RD29B-LUC in the absence of ABA” value is “an increase was not observed”.

B1: PYL13: Arabidopsis thaliana PYR/PYL/RCAR family protein PYL13, SEQ ID NO: 1 (protein, listed as Arabidopsis thaliana)
chain: MESSKQKRCRSSVVETIEAPLPLVWSILRSFDKPQAYQRFVKSCTMRSGGGGGKGGEGKGSVRDVTLVSGFPADFSTERLEELDDESHVMVVSIIGGNHRLVNYKSKTKVVASPEDMAKKTVVVESYVVDVPEGTSEEDTIFFVDNIIRYNLTSLAKLTKKMMK
Regarding B1, the “expression of RD29B-LUC in the absence of ABA” value is recorded as “an increase was not observed” in the assay on RD29B-LUC expression (with HAI1, SnRK2.6 and ABF2); “increased” in the assay on RD29B-LUC expression (with PP2CA, HAI2, or HAI3, SnRK2.6 and ABF2). The “binding in yeast two-hybrid assay” value in the assay with clade A PP2Cs (with ABI1, ABI2, PP2CA, and HAI2) is on record as “strongly”; in the assay with clade A PP2Cs (with HAB1 and HAI1), “weakly”.

The values are drawn from US9518268B2, “Drought tolerant transgenic plants and method of making same” (PURDUE RESEARCH FOUNDATION, priority 2013, dated 2016).
